Measured values published in the supplement of paper PMC11908140.

B1: library; numbered along this chain (parent)
chain: MRKPRAAVGSGHRKQAASQEGRQKHAKNNSQAKPSACDGLARQPEEVVLQASVSSYHLFRDVAEVTAFRGSLLSWYDQEKRDLPWRRRAEDEMDLDRRAYAVWVSEVMLQQTQVATVINYYTGWMQKWPTLQDLASASLEEVNQLWAGLGYYSRGRRLQEGARKVVEELGGHMPRTAETLQQLLPGVGRYTAGAIASIAFGQATGVVDGNVARVLCRVRAIGADPSSTLVSQQLWGLAQQLVDPARPGDFNQAAMELGATVCTPQRPLCSQCPVESLCRARQRVEQEQLLASGSLSGSPDVEECAPNTGQCHLCLPPSEPWDQTLGVVNFPRKASRKPPREESSATCVLEQPGALGAQILLVQRPNSGLLAGLWEFPSVTWEPSEQLQRKALLQELQRWAGPLPATHLRHLGEVVHTFSHIKLTYQVYGLALEGQTPVTTVPPGARWLTQEEFHTAAVSTAMKKVFRVYQGQQPGTCMGSKRSQVSSPCSRKKPRMGQQVLDNFFRSHISTDAHSLNSAAQ

Variants of: B1
Assay: 8OG:A repair function score (normalized; synonymous = 0, nonsense = -1) (normalized log-likelihood score); higher = more repair activity (WT-like)
Conditions: with 8OG:A DNA repair reporter (GFP) in HEK-293 MUTYH KO cells
Description: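 Saturation mutagenesis (NNN codon scan) of the MUTYH cDNA (521-aa nuclear isoform NM_001048174.1 / NP_001041639), stably expressed under doxycycline induction in HEK-293 MUTYH knockout cells. Cells were co-transfected with an 8OG:A-bearing GFP repair reporter plus mCherry and sorted 72 h later into GFP+ and GFP− bins, three replicates per tile. The Rosace log2 enrichment (GFP+ vs GFP−) was converted per tile to a normalized function score with synonymous variants centered at 0 and nonsense variants (codons 1-471) at -1; low-abundance variants were removed.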

First: MRKPRAAVGSGHRKQAASQEGRQKHAKNNSQAKPSACDGLARQPEEVVLQASVSSYHLFRDVAEVTAFRGSLLSWYDQEKRDLPWRRRAEDEMDLDDRAYAVWVSEVMLQQTQVATVINYYTGWMQKWPTLQDLASASLEEVNQLWAGLGYYSRGRRLQEGARKVVEELGGHMPRTAETLQQLLPGVGRYTAGAIASIAFGQATGVVDGNVARVLCRVRAIGADPSSTLVSQQLWGLAQQLVDPARPGDFNQAAMELGATVCTPQRPLCSQCPVESLCRARQRVEQEQLLASGSLSGSPDVEECAPNTGQCHLCLPPSEPWDQTLGVVNFPRKASRKPPREESSATCVLEQPGALGAQILLVQRPNSGLLAGLWEFPSVTWEPSEQLQRKALLQELQRWAGPLPATHLRHLGEVVHTFSHIKLTYQVYGLALEGQTPVTTVPPGARWLTQEEFHTAAVSTAMKKVFRVYQGQQPGTCMGSKRSQVSSPCSRKKPRMGQQVLDNFFRSHISTDAHSLNSAAQ [R97D]
Second: MRKPRAAVGSGHRKQAASQEGRQKHAKNNSQAKPSACDGLARQPEEVVLQASVSSYHLFRDVAEVTAFRGSLLSWYDQEKRDLPWRRRAEDEMDLDHRAYAVWVSEVMLQQTQVATVINYYTGWMQKWPTLQDLASASLEEVNQLWAGLGYYSRGRRLQEGARKVVEELGGHMPRTAETLQQLLPGVGRYTAGAIASIAFGQATGVVDGNVARVLCRVRAIGADPSSTLVSQQLWGLAQQLVDPARPGDFNQAAMELGATVCTPQRPLCSQCPVESLCRARQRVEQEQLLASGSLSGSPDVEECAPNTGQCHLCLPPSEPWDQTLGVVNFPRKASRKPPREESSATCVLEQPGALGAQILLVQRPNSGLLAGLWEFPSVTWEPSEQLQRKALLQELQRWAGPLPATHLRHLGEVVHTFSHIKLTYQVYGLALEGQTPVTTVPPGARWLTQEEFHTAAVSTAMKKVFRVYQGQQPGTCMGSKRSQVSSPCSRKKPRMGQQVLDNFFRSHISTDAHSLNSAAQ [R97H]
The “8OG:A repair function score” value of the first is higher: 0.00527 for the first, -0.211 for the second.

Compared with MRKPRAAVGSGHRKQAASQEGRQKHAKNNSQAKPSACDGLARQPEEVVLQASVSSYHLFRDVAEVTAFRGSLLSWYDQEKRDLPWRRRAEDEMDLDCRAYAVWVSEVMLQQTQVATVINYYTGWMQKWPTLQDLASASLEEVNQLWAGLGYYSRGRRLQEGARKVVEELGGHMPRTAETLQQLLPGVGRYTAGAIASIAFGQATGVVDGNVARVLCRVRAIGADPSSTLVSQQLWGLAQQLVDPARPGDFNQAAMELGATVCTPQRPLCSQCPVESLCRARQRVEQEQLLASGSLSGSPDVEECAPNTGQCHLCLPPSEPWDQTLGVVNFPRKASRKPPREESSATCVLEQPGALGAQILLVQRPNSGLLAGLWEFPSVTWEPSEQLQRKALLQELQRWAGPLPATHLRHLGEVVHTFSHIKLTYQVYGLALEGQTPVTTVPPGARWLTQEEFHTAAVSTAMKKVFRVYQGQQPGTCMGSKRSQVSSPCSRKKPRMGQQVLDNFFRSHISTDAHSLNSAAQ [R97C], MRKPRAAVGSGHRKQAASQEGRQKHAKNNSQAKPSACDGLARQPEEVVLQASVSSYHLFRDVAEVTAFRGSLLSWYDQEKRDLPWRRRAEDEMDLDERAYAVWVSEVMLQQTQVATVINYYTGWMQKWPTLQDLASASLEEVNQLWAGLGYYSRGRRLQEGARKVVEELGGHMPRTAETLQQLLPGVGRYTAGAIASIAFGQATGVVDGNVARVLCRVRAIGADPSSTLVSQQLWGLAQQLVDPARPGDFNQAAMELGATVCTPQRPLCSQCPVESLCRARQRVEQEQLLASGSLSGSPDVEECAPNTGQCHLCLPPSEPWDQTLGVVNFPRKASRKPPREESSATCVLEQPGALGAQILLVQRPNSGLLAGLWEFPSVTWEPSEQLQRKALLQELQRWAGPLPATHLRHLGEVVHTFSHIKLTYQVYGLALEGQTPVTTVPPGARWLTQEEFHTAAVSTAMKKVFRVYQGQQPGTCMGSKRSQVSSPCSRKKPRMGQQVLDNFFRSHISTDAHSLNSAAQ [R97E] is lower in “8OG:A repair function score” value: 0.00684 for the first, 0.00633 for the second.

Compared with MRKPRAAVGSGHRKQAASQEGRQKHAKNNSQAKPSACDGLARQPEEVVLQASVSSYHLFRDVAEVTAFRGSLLSWYDQEKRDLPWRRRAEDEMDLDARAYAVWVSEVMLQQTQVATVINYYTGWMQKWPTLQDLASASLEEVNQLWAGLGYYSRGRRLQEGARKVVEELGGHMPRTAETLQQLLPGVGRYTAGAIASIAFGQATGVVDGNVARVLCRVRAIGADPSSTLVSQQLWGLAQQLVDPARPGDFNQAAMELGATVCTPQRPLCSQCPVESLCRARQRVEQEQLLASGSLSGSPDVEECAPNTGQCHLCLPPSEPWDQTLGVVNFPRKASRKPPREESSATCVLEQPGALGAQILLVQRPNSGLLAGLWEFPSVTWEPSEQLQRKALLQELQRWAGPLPATHLRHLGEVVHTFSHIKLTYQVYGLALEGQTPVTTVPPGARWLTQEEFHTAAVSTAMKKVFRVYQGQQPGTCMGSKRSQVSSPCSRKKPRMGQQVLDNFFRSHISTDAHSLNSAAQ [R97A], MRKPRAAVGSGHRKQAASQEGRQKHAKNNSQAKPSACDGLARQPEEVVLQASVSSYHLFRDVAEVTAFRGSLLSWYDQEKRDLPWRRRAEDEMDLDGRAYAVWVSEVMLQQTQVATVINYYTGWMQKWPTLQDLASASLEEVNQLWAGLGYYSRGRRLQEGARKVVEELGGHMPRTAETLQQLLPGVGRYTAGAIASIAFGQATGVVDGNVARVLCRVRAIGADPSSTLVSQQLWGLAQQLVDPARPGDFNQAAMELGATVCTPQRPLCSQCPVESLCRARQRVEQEQLLASGSLSGSPDVEECAPNTGQCHLCLPPSEPWDQTLGVVNFPRKASRKPPREESSATCVLEQPGALGAQILLVQRPNSGLLAGLWEFPSVTWEPSEQLQRKALLQELQRWAGPLPATHLRHLGEVVHTFSHIKLTYQVYGLALEGQTPVTTVPPGARWLTQEEFHTAAVSTAMKKVFRVYQGQQPGTCMGSKRSQVSSPCSRKKPRMGQQVLDNFFRSHISTDAHSLNSAAQ [R97G] is lower in “8OG:A repair function score” value: 0.00655 for the first, -0.0171 for the second.
